Source: patent publication US20080220004A1 (published 2008)

B1: mini-VEGF trap (other)
chain: SDTGRPFVEMYSEIPEIIHMTEGRELVIPCRVTSPNITVTLKKFPLDTLIPDGKRIIWDSRKGFIISNATYKEIGLLTCEATVNGHLYKTNYLTHRQTNTIIDVVLSPSHGIELSVGEKLVLNCTARTELNVGIDFNWEYPSSKHQHKKLVNRDLKTQSGSEMKKFLSTLTIDGVTRSDQGLYTCAASSGLMTKKNSTFVRVHEKDKTHTCPPC
notes: also called truncated VEGF trap protein

What was measured:
[1] = molecular target: chimeric receptor Flt(1-7)-EpoR on Baf/3 cells (human) (UniProt P17948); assay: cell-based or functional assay
[2] = molecular target: human VEGF165 (human, UniProt P15692-4 27-191); assay: ELISA of rabbit ocular tissue and plasma samples on human VEGF165-coated plates (pharmacokinetic detection)
Sequence of human VEGF165 (P15692 other isoform, or with tags, fused parts or gaps): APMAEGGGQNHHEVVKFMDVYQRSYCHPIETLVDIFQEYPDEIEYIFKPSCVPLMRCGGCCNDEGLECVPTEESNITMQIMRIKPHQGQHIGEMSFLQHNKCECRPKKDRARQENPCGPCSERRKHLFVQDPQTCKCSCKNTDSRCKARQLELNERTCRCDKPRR
Experimental: Ocular and systemic levels of two VEGF inhibitors were determined after a single intravitreal administration to male Pigmented New Zealand Cross Bred rabbits. At various time points following the injection, the rabbits were sacrificed and vitreous, retina, and choroid tissues were collected, as well as blood samples for plasma and serum.
Sample Processing. Generally, vitreal samples were thawed at room temperature and transferred to individual 5 mL polypropylene tubes. An equivalent weight per volume of RIPA buffer (20 MM Tris HCl, pH 7.5, 5 mM benzamidine, 150 mM sodium chloride, 50 mM sodium fluoride, 1 mM sodium orthovanadate, and 1 mM EDTA) was added to each sample, and homogenized (Cyclone I.Q. Microprocessor, Sentry) for 2, 45 second cycles at 5,500 rpm. The samples were then incubated for 20 minutes on ice and then centrifuged for 30 minute at 5,500 rpm at 4° C. The supernatant was removed and stored at −80° C. for analysis. Retinal and choroid samples were similarly processed the samples were homogenized for 30-60 seconds at the highest speed setting (Ultra Tunax T8 Homogenizer with S8N-5G Disposing Element, IKA Laboratoies). The samples were transferred to individual 1.5 mL eppendorf tubes and incubated for 20 minutes on ice. They were then centrifuged for 30 minutes at 5,500 rpm, 4° C. […]

Sequence of chimeric receptor Flt(1-7)-EpoR on Baf/3 cells (human) (P17948 other isoform, or with tags, fused parts or gaps mutant limits assumed): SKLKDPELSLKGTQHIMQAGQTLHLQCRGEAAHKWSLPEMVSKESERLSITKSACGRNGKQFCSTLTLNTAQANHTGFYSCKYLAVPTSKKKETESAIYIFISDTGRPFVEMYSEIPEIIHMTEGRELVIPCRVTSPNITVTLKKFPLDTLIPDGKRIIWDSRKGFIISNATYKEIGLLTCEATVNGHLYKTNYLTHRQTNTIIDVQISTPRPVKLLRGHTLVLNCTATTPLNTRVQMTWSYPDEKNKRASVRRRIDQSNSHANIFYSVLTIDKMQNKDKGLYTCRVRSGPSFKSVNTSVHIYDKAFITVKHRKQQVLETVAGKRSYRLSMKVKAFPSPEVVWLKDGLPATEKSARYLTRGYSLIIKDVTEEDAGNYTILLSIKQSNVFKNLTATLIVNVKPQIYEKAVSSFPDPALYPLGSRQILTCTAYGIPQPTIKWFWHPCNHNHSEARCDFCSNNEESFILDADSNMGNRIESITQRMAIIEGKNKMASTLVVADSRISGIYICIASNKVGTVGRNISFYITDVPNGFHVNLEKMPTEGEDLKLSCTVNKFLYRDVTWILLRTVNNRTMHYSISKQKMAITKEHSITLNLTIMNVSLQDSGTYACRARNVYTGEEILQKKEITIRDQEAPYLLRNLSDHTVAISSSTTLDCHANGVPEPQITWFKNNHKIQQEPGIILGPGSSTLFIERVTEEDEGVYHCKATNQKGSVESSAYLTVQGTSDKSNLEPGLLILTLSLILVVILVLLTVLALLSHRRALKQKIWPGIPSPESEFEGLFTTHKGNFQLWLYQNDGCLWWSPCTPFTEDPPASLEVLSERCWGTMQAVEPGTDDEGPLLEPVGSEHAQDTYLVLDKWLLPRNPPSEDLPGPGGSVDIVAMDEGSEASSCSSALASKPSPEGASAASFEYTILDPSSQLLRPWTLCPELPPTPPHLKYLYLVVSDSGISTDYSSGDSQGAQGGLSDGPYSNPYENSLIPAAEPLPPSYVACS

| Molecule | proliferation of Baf/Flt(1-7)-EpoR cells (WST-8 bioreduction), EC50 [1] [nM] | binding result [2] |
| --- | --- | --- |
| VEGF 121 (R&D Biosystems) (from UniProt P15692 27-147) (ligand) | 0.018 | – |
| B1 | – | binds |
